From patent US20260139026A1 (published 2026)

Assays:
[1] = molecular target: T1, PIK3CA H1047L (8-mer) peptide on HLA-A*03:01 (human); assay: cytokine release
T1 peptide: LHGGWTTK

[2] = molecular target: T2, PIK3CA H1047L (10-mer) peptide on HLA-A*03:01 (human); assay: cytokine release
T2 peptide: DALHGGWTTK

[3] = molecular target: T3, PIK3CA H1047L peptide on HLA-A*03:01 (human); assay: multimer staining
T3 peptide: ALHGGWTTK

- binding result [1]: recognises
- binding result [2]: recognises
- binding result [3]: recognises
B1: 1022T8 (TCR, V domains shown)
Valpha: GDSVTQMEGPVTLSEEAFLTINCTYTATGYPSLFWYVQYPGEGLQLLLKATKADDKGSNKGFEATYRKETTSFHLEKGSVQVSDSAVYFCALTVGGSYIPTFGRGTSLIVHP
Vbeta: DTEVTQTPKHLVMGMTNKKSLKCEQHMGHRAMYWYKQKAKKPPELMFVYSYEKLSINESVPSRFSPECPNSSLLNLHLHALQPEDSALYLCASSQGGQGWRETQYFGPGTRLLVL
